Laboratory results as given in the supplement of paper PMC7125110.
± gives the standard error. Fewer inactive variants are shown than the library holds.

B1: glmS ribozyme (parent)
chain: AUAAAAGCGCCAGAACUACAGAAAUGUAGUUGACGAGGAGGAGGUUUAUCGAAUUUUCGGCGGAUGCCUCCAAA

What was measured:
Conditions in all cases: with glucosamine-6-phosphate
glucosamine-6-phosphate [1] = variants of: B1; test: self-cleavage kobs at 40 uM GlcN6P; higher = faster cleavage; RNA array
Outline: (§1)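 Glucosamine-6-phosphate in HEPES/KCl/Mg(OAc)2 buffer, at 40 μM to 10 mM, was flowed over barcoded ribozyme variants transcribed in situ by E. coli RNA polymerase on sequenced MiSeq chips. Tracking was through a hybridised Cy3 probe at 37 °C. kobs, kcat and KM came from exponential decay fits and weighted Michaelis–Menten fits of normalised per-tile medians.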

glucosamine-6-phosphate [2] = variants of: B1; test: self-cleavage kobs at 2500 uM GlcN6P; higher = faster cleavage; RNA array
Outline: as §1

glucosamine-6-phosphate [3] = variants of: B1; test: self-cleavage kobs at 10000 uM GlcN6P; higher = faster cleavage; RNA array
Outline: as §1

glucosamine-6-phosphate [4] = variants of: B1; test: self-cleavage kobs at 160 uM GlcN6P; higher = faster cleavage; RNA array
Outline: as §1

glucosamine-6-phosphate [5] = variants of: B1; test: self-cleavage kobs at 640 uM GlcN6P; higher = faster cleavage; RNA array
Outline: as §1

| Variant | self-cleavage kobs at 40 uM GlcN6P (glucosamine-6-phosphate [1]) | self-cleavage kobs at 2500 uM GlcN6P (glucosamine-6-phosphate [2]) | self-cleavage kobs at 10000 uM GlcN6P (glucosamine-6-phosphate [3]) | self-cleavage kobs at 160 uM GlcN6P (glucosamine-6-phosphate [4]) | self-cleavage kobs at 640 uM GlcN6P (glucosamine-6-phosphate [5]) |
| --- | --- | --- | --- | --- | --- |
| U54G C71A | 0.00016 ± 3.2e-05 s⁻¹ | 0.00157 ± 0.00049 s⁻¹ | 0.00496 ± 0.001 s⁻¹ | – | – |
| C8A A33U | – | < 1e-05 s⁻¹ | < 1e-05 s⁻¹ | < 1e-05 s⁻¹ | – |
| A6G A15C U45A G59A | – | < 1e-05 s⁻¹ | – | < 1e-05 s⁻¹ | < 1e-05 s⁻¹ |
| U54A C71A | 0.000351 ± 6.3e-05 s⁻¹ | 0.00847 ± 0.0023 s⁻¹ | 0.0109 ± 0.0026 s⁻¹ | 0.000583 ± 8.5e-05 s⁻¹ | 0.000818 ± 0.00011 s⁻¹ |
| G7U G9A C16U G29A A53U G59A G66A U69G | – | – | – | < 1e-05 s⁻¹ | < 1e-05 s⁻¹ |
| G59C | < 1e-05 s⁻¹ | – | < 1e-05 s⁻¹ | < 1e-05 s⁻¹ | < 1e-05 s⁻¹ |
| G7C U56A | – | < 1e-05 s⁻¹ | < 1e-05 s⁻¹ | < 1e-05 s⁻¹ | < 1e-05 s⁻¹ |
| C50G C58A C70U | 9.84e-05 ± 1.6e-05 s⁻¹ | 0.000176 ± 4e-05 s⁻¹ | 0.000117 ± 2.1e-05 s⁻¹ | – | – |
| A6C C8U C10G A12U G38U | – | < 1e-05 s⁻¹ | – | < 1e-05 s⁻¹ | < 1e-05 s⁻¹ |
| G7C C50A | – | – | < 1e-05 s⁻¹ | < 1e-05 s⁻¹ | < 1e-05 s⁻¹ |
| C8G A42U C58U | – | < 1e-05 s⁻¹ | – | < 1e-05 s⁻¹ | – |
| A53U U69C | 0.000317 ± 6.8e-05 s⁻¹ | – | 0.00288 ± 0.00074 s⁻¹ | 0.000141 ± 5.3e-05 s⁻¹ | 0.00104 ± 0.0003 s⁻¹ |
| G7C G9U A36G C68A | – | < 1e-05 s⁻¹ | – | < 1e-05 s⁻¹ | < 1e-05 s⁻¹ |
| A6C A12C A36C G43A G51U C70G | – | – | – | < 1e-05 s⁻¹ | < 1e-05 s⁻¹ |
| U49A U57G | < 1e-05 s⁻¹ | – | – | – | < 1e-05 s⁻¹ |
| C50G G63A C70G | 0.000105 ± 2.6e-05 s⁻¹ | 9.35e-05 ± 3e-05 s⁻¹ | 8.99e-05 ± 1.5e-05 s⁻¹ | – | 0.000198 ± 4.3e-05 s⁻¹ |
| A1C U30G | – | 0.00723 ± 0.0018 s⁻¹ | – | 0.000834 ± 0.00021 s⁻¹ | 0.00402 ± 0.0016 s⁻¹ |
| A6U A15C U55A G66U | – | < 1e-05 s⁻¹ | – | < 1e-05 s⁻¹ | < 1e-05 s⁻¹ |
| A53G G60U | < 1e-05 s⁻¹ | – | – | < 1e-05 s⁻¹ | < 1e-05 s⁻¹ |
| G63A | < 1e-05 s⁻¹ | – | < 1e-05 s⁻¹ | – | < 1e-05 s⁻¹ |
| G63C | < 1e-05 s⁻¹ | < 1e-05 s⁻¹ | < 1e-05 s⁻¹ | < 1e-05 s⁻¹ | < 1e-05 s⁻¹ |
| A52G C61U | < 1e-05 s⁻¹ | < 1e-05 s⁻¹ | – | < 1e-05 s⁻¹ | – |
| G7U A52C | – | – | < 1e-05 s⁻¹ | < 1e-05 s⁻¹ | < 1e-05 s⁻¹ |

| Variant | self-cleavage kobs at 40 uM GlcN6P (glucosamine-6-phosphate [1]) | self-cleavage kobs at 2500 uM GlcN6P (glucosamine-6-phosphate [2]) | self-cleavage kobs at 10000 uM GlcN6P (glucosamine-6-phosphate [3]) | self-cleavage kobs at 160 uM GlcN6P (glucosamine-6-phosphate [4]) | self-cleavage kobs at 640 uM GlcN6P (glucosamine-6-phosphate [5]) |
| --- | --- | --- | --- | --- | --- |
| A48G G59U | < 1e-05 s⁻¹ | – | – | – | – |
| A6U C10G C68U | – | – | – | < 1e-05 s⁻¹ | – |
| G60A G66A | < 1e-05 s⁻¹ | – | – | < 1e-05 s⁻¹ | – |
| G60A G66U | < 1e-05 s⁻¹ | – | < 1e-05 s⁻¹ | < 1e-05 s⁻¹ | < 1e-05 s⁻¹ |
| G7A U31C | – | – | – | < 1e-05 s⁻¹ | < 1e-05 s⁻¹ |
| A6G U57A G60A C71G | – | < 1e-05 s⁻¹ | – | < 1e-05 s⁻¹ | < 1e-05 s⁻¹ |
| A48U C50U C58A | < 1e-05 s⁻¹ | – | – | < 1e-05 s⁻¹ | < 1e-05 s⁻¹ |
| A48U C68A | < 1e-05 s⁻¹ | – | – | – | < 1e-05 s⁻¹ |
| G59A A64U | < 1e-05 s⁻¹ | < 1e-05 s⁻¹ | < 1e-05 s⁻¹ | – | – |
| C50G A52C U69A | 8.7e-05 ± 2.7e-05 s⁻¹ | – | 4.8e-05 ± 1.6e-05 s⁻¹ | – | – |
| A6U G38U G43U | – | < 1e-05 s⁻¹ | – | < 1e-05 s⁻¹ | – |
| U57C G62U C70A | < 1e-05 s⁻¹ | – | – | – | – |
| U55G C71G | 7.4e-05 ± 1.7e-05 s⁻¹ | 0.000704 ± 0.00019 s⁻¹ | 0.00121 ± 0.00035 s⁻¹ | – | – |
| A6C G37U C50U G60C | – | – | – | < 1e-05 s⁻¹ | < 1e-05 s⁻¹ |
| G7U C10A G29C U57C | – | < 1e-05 s⁻¹ | – | < 1e-05 s⁻¹ | < 1e-05 s⁻¹ |
| G51U G63C | < 1e-05 s⁻¹ | < 1e-05 s⁻¹ | < 1e-05 s⁻¹ | – | < 1e-05 s⁻¹ |
| C50G G66U C67A | 0.000105 ± 1.9e-05 s⁻¹ | 4.67e-05 ± 1.7e-05 s⁻¹ | 0.000166 ± 2.7e-05 s⁻¹ | – | – |
| G7A U54G | – | – | 4.41e-05 ± 1.5e-05 s⁻¹ | < 1e-05 s⁻¹ | – |
| A48U G59A G66U | < 1e-05 s⁻¹ | – | < 1e-05 s⁻¹ | < 1e-05 s⁻¹ | < 1e-05 s⁻¹ |
| C58U G59C | < 1e-05 s⁻¹ | – | – | – | – |
| A48U C61A C67U | < 1e-05 s⁻¹ | < 1e-05 s⁻¹ | < 1e-05 s⁻¹ | – | – |
| G7C C50U G51U C70A | – | < 1e-05 s⁻¹ | – | < 1e-05 s⁻¹ | – |
| C50U A52U | < 1e-05 s⁻¹ | < 1e-05 s⁻¹ | < 1e-05 s⁻¹ | < 1e-05 s⁻¹ | < 1e-05 s⁻¹ |
